In US20130022605A1 one finds ND50, L929 cytotoxicity without TNF-α (agonism) data, which are given here for two substances.

In the assay the target is mouse TNFR1 on L929 cells (mouse) (UniProt P25118). Description: cell-based or functional assay.
Chain of mouse TNFR1 on L929 cells (mouse) (P25118 30-454): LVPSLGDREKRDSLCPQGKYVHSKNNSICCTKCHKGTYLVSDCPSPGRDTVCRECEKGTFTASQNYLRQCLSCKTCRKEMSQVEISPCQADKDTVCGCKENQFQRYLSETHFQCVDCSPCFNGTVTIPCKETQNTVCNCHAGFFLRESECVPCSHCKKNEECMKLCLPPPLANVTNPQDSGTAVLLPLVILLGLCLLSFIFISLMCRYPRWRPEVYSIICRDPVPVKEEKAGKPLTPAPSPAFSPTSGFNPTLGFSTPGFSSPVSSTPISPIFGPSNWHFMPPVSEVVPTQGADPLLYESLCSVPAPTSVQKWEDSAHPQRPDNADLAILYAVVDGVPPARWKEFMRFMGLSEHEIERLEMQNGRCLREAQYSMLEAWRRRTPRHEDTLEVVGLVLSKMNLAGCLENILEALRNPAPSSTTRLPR

Take “anti-TNFR1 antibody AF-425-PB (R&D Systems)”: the ND50, L929 cytotoxicity without TNF-α (agonism) worked out at 100 pM.

On to “anti-TNFR1 antibody MAB430 (R&D Systems)”, for which the ND50, L929 cytotoxicity without TNF-α (agonism) worked out at 10000 pM.
